Positions of bridges follow the written chain, without caps; N, C: chain ends. Non-standard residues stand in square brackets, D forms with d. Residues, ends and D or L forms follow the SMILES beside them. No end group written: not given here. Bta = N[C@@H](Cc1csc2ccccc12)C(=O)O; d(hLeu) = CC(C)CC[C@@H](N)C(=O)O; Cha = N[C@@H](CC1CCCCC1)C(=O)O; dCha = N[C@H](CC1CCCCC1)C(=O)O; AllylGly = C=CC[C@H](N)C(=O)O; Nle = CCCC[C@H](N)C(=O)O; Orn = NCCC[C@H](N)C(=O)O; dNMeA = CN[C@H](C)C(=O)O
Experiments:
[1] = biological target: T1, C5aR (Homo sapiens, UniProt P21730); settings: PMN membranes; read-out: IC50 for the binding (WO 90/09162); cited from earlier work
T1 construct: derived from measurements with isolated membranes from polymorphonuclear neutrophilic granulocytes (PMN membranes); host or cells: isolated membranes of polymorphonuclear neutrophilic granulocytes (PMN membranes)
T1 sequence (P21730 1-350): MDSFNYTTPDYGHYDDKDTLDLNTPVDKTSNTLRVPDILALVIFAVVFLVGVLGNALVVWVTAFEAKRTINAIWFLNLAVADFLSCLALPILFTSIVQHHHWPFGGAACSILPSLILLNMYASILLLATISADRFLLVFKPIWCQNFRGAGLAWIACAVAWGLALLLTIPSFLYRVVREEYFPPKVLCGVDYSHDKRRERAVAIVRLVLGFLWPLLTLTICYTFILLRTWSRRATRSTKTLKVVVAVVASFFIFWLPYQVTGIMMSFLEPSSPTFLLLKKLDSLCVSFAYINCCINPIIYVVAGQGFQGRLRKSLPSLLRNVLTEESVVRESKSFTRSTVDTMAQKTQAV

[2] = biological target: T2, human C5aR (CD88) (Homo sapiens, UniProt P21730); experiment: Determination of the IC50 value in an enzyme release assay (functional assay, antagonistic activity); type: cell-based
T2 construct: expressed in transfected cells; host or cells: rat basophilic leukemia cells (RBL)
T2 sequence (P21730 1-350): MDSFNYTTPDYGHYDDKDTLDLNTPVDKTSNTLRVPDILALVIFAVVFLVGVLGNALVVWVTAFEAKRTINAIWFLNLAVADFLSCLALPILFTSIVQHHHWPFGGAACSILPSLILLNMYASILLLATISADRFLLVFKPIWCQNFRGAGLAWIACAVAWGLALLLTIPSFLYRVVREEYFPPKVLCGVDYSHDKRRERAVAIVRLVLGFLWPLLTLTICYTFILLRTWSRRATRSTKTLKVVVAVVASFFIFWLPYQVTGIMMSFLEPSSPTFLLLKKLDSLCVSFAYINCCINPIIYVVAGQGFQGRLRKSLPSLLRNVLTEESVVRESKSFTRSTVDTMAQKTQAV

[3] = biological target: T2, human C5aR (CD88); experiment: Determination of EC50 values in an enzyme release assay (agonistic activity, no C5a added); type: cell-based; settings: cellular assay, up to a concentration of at least 1430 nM
Procedure: The determination of the EC50 value was performed in a way similar to the procedure described in example 11, with the only exception that 30 μl of the compound to be tested were mixed with 75 μl of the cell suspension described in example 11. There was no preincubation or addition of C5a for stimulation of the enzyme release.

[4] = tested on: BALB/c mice; experiment: Model of immune complex mediated peritonitis (reverse passive Arthus reaction); type: in vivo; settings: 1 mg/kg i.v. 15 min before Arthus reaction, lavage after 6 h, FIG. 1
Procedure: Immune complex mediated peritonitis is part of the pathological conditions of immune complex related diseases such as vasculitis, nephritis, arthritis, and farmer's disease. The corresponding animal model was described by Heller et al. (1999 Journal of Immunology 163: 985-994) and takes advantage of the pro-inflammatory effect of immune complexes formation from i.v. administration of the antigen and i.p. administration of the antibody.
BALB/c mice (6-8 weeks old) were treated i.v. with the compound 149 (1 mg/kg body weight in 200 μl vehicle) which is one in accordance with the present invention, 15 min before the initiation of the reverse passive Arthus reaction. Arthus reaction was induced by the administration of OVA (20 mg/kg i.v. in 200 μl PBS) and polyclonal anti-OVA Ab (rabbit; 800 μg/Maus i.p). After 6 h a peritoenal lavage with 2 ml PBS 0.1% BSA was done. The collected PE-cells were stained with DIFF-Quick. At least 20 visual fields (100× magnification) were analysed for the presence of neutrophils.

[5] = tested on: Female Wistar rats; experiment: Model of C5a induced neutropenia; type: in vivo; settings: i.v. infusion 10 min before 2 μg/kg hrC5a i.v., FIG. 2
Excerpt: C5a induced neutropenia is a model for shock induced diseases (e.g. septic shock), where the systemic role of C5a such as neutropenia, blood pressure decrease, plays an important role. The reason for the decrease of the neutrophils in the circulation is their C5a triggered binding to the vessel walls. This process of neutrophil recruitment is also playing an important role in many other diseases like reperfusion injury. This model was also described by Short et al. (1999 British Journal of Pharmacology 125: 551-554).
Female Wistar rats were anaesthetized i.p. with ketamine (80 mg/kg) and xylazine (12 mg/kg). A catheter was introduced into the jugular veine and the animals were subjected to the following procedure: • 1. Rats were pre-treated with vehicle or compound 149 which is a compound according to the invention, via i.v. infusion. A blood sample was taken one minute prior to that. • 2. 10 min after compound infusion the rats were treated with 2 μg/kg hrC5a i.v. (2 μg/kg over 1 min)
Blood samples are taken shortly before and at various times after hrC5a administration. • 3. […]
White blood cell count was measured with a haematology-cell-counter. […]
The differential cell count is determined as the sum of neutrophils, eosinophils, basophils, lymphocytes and monocytes of 100 cells. Then the percentage of the neutrophils in relation to all white blood cells is calculated.

[6] = biological target: T3, C5a receptor (Homo sapiens, UniProt P21730); settings: read-out: IC50 as a measure for affinity (WO 03/033528); cited from earlier work
T3 sequence (P21730 1-350): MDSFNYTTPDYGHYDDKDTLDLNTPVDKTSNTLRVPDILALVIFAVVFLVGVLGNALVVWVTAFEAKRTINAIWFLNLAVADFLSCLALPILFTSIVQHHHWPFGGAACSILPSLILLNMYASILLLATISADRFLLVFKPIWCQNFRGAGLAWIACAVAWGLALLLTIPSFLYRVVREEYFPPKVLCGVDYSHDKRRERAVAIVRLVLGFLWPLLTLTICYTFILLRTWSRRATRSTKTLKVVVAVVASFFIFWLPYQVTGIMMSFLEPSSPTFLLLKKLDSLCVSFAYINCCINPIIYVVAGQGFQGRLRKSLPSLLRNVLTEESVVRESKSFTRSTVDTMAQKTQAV

[7] = biological target: T4, human C5aR (CD88) (human, UniProt P21730 1-350); experiment: cell-based or functional assay
T4 sequence (looked up): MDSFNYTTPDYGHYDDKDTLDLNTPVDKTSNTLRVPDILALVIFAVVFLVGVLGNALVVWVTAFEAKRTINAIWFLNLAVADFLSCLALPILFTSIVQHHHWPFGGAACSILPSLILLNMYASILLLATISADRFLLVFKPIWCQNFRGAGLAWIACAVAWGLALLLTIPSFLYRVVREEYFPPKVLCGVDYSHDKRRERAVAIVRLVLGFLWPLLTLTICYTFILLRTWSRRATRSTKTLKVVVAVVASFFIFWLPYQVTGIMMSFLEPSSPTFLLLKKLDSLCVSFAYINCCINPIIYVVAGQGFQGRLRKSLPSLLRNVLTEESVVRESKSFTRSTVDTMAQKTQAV

[8] = biological target: T4, human C5aR (CD88); experiment: cell-based or functional assay; remark: listed apart in the source
[9] = biological target: T4, human C5aR (CD88); experiment: cell-based or functional assay; remark: listed apart in the source
[10] = biological target: T4, human C5aR (CD88); experiment: cell-based or functional assay; remark: listed apart in the source

## Ac-Phe-Lys-Ala-Cha-Ala-Leu-N-Methyl(D)ala-Arg-OH (Ac-FKA[Cha]AL[dNMeA]R-OH; SMILES CC(=O)N[C@@H](Cc1ccccc1)C(=O)N[C@@H](CCCCN)C(=O)N[C@@H](C)C(=O)N[C@@H](CC1CCCCC1)C(=O)N[C@@H](C)C(=O)N[C@@H](CC(C)C)C(=O)N(C)[C@H](C)C(=O)N[C@@H](CCCNC(=N)N)C(=O)O)
[1]
  IC50: 12 nM

## CC(=O)N[C@@H](Cc1ccccc1)C(=O)N[C@@H](CCCN)C(=O)N1CCC[C@H]1C(=O)N[C@H](CCC(C)C)C(=O)N[C@@H](Cc1csc2ccccc12)C(=O)N[C@@H](Cc1ccccc1)C(N)=O [Compound 149, Ac-Phe-Orn-Pro-hle-Bta-Phe-NH2] (Ac-F[Orn]P[d(hLeu)][Bta]F-NH2)
[2]
  inhibitory activity (in words): noteworthy inhibitory activity
[3]
  agonistic activity (in words): pure antagonists
[4]
  influx of pro-inflammatory cells (neutrophils) into the peritoneum: reduction of the influx of pro-inflammatory cells into the peritoneum
[5]
  C5a-induced neutropenia: reduces significantly C5a-induced neutropenia

## Ac-Phe[Orn-Pro-cha-Trp-Arg] with the Arg substituted with lysine (WO 03/033528); number 47 also printed for canavanine [WO 03/033528 compound 47]
[6]
  IC50: 24000 nM

B1: Ac-Phe-[Orn-Pro-cha-Trp-Eaf] (peptide)
peptide: Ac-F[Orn]P[dCha]W[AllylGly]
modifications: lactam (positions not given here); not fully specified (bridges); printed as Ac-Phe-[Orn-Pro-cha-Trp-Eaf]
[7]
  IC50 activity group, enzyme release assay: ≤ 10 nM
[8]
  EC50, agonistic activity, enzyme release assay: > 1430 nM

## FXPXWX (not fully specified; Ac-; Orn2; cha4 (D); Cit6; cyclic [2-6]) [Ac-Phe-[Orn-Pro-cha-Trp-Cit]]
[7]
  IC50 activity group, enzyme release assay: ≤ 2000 nM
[9]
  IC50 activity group, enzyme release assay (Example 30): ≤ 2000 nM

B2: Ac-Lys-Phe-[Orn-Pro-cha-Trp-Nle] (peptide)
peptide: Ac-KF[Orn]P[dCha]W[Nle]
modifications: lactam 3-C
SMILES: CCCC[C@@H]1NC(=O)[C@H](Cc2c[nH]c3ccccc23)NC(=O)[C@@H](CC2CCCCC2)NC(=O)[C@@H]2CCCN2C(=O)[C@@H](NC(=O)[C@H](Cc2ccccc2)NC(=O)[C@H](CCCCN)NC(C)=O)CCCNC1=O
[7]
  IC50 activity group, enzyme release assay: ≤ 50 nM
[8]
  EC50, agonistic activity, enzyme release assay: > 1430 nM

B3: Ac-Phe-[Orn-Pro-cha-Trp-Phe] (peptide)
peptide: Ac-F[Orn]P[dCha]WF
modifications: lactam (positions not given here); not fully specified (bridges); printed as Ac-Phe-[Orn-Pro-cha-Trp-Phe]
[10]
  IC50, enzyme release assay: 23 nM
[7]
  IC50 activity group, enzyme release assay: ≤ 50 nM
[8]
  EC50, agonistic activity, enzyme release assay: > 1430 nM
